This test concerns the target T1, wild-type Mtd (major tropism determinant), Mtd-GST fusion protein (Bordetella bronchiseptica bacteriophage), Q775D6.
T1 chain: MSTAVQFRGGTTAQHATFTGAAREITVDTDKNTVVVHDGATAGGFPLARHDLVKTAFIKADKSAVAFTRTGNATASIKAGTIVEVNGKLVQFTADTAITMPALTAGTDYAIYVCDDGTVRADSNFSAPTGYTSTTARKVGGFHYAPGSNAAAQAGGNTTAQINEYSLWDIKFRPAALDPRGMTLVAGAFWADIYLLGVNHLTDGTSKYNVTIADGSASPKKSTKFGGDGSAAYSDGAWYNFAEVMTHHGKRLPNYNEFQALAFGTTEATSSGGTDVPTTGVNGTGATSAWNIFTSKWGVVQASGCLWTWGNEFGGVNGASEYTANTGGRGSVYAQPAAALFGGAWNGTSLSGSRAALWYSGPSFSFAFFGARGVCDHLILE
The experiment in a line: SEC; size exclusion chromatography of purified Mtd-GST fusion proteins after dialysis into PBS. The conditions noted are these: remark: other sources report otherwise. For orientation: Size exclusion chromatography separates by hydrodynamic size, large species first.

These results are taken from article PMC3567102.

The stoichiometry N is a count of units in the complex or per binding partner.

B1: wild-type Mtd (major tropism determinant), Mtd-GST fusion protein, Q775D6 1-381 (natural protein)
chain: MSTAVQFRGGTTAQHATFTGAAREITVDTDKNTVVVHDGATAGGFPLARHDLVKTAFIKADKSAVAFTRTGNATASIKAGTIVEVNGKLVQFTADTAITMPALTAGTDYAIYVCDDGTVRADSNFSAPTGYTSTTARKVGGFHYAPGSNAAAQAGGNTTAQINEYSLWDIKFRPAALDPRGMTLVAGAFWADIYLLGVNHLTDGTSKYNVTIADGSASPKKSTKFGGDGSAAYSDGAWYNFAEVMTHHGKRLPNYNEFQALAFGTTEATSSGGTDVPTTGVNGTGATSAWNIFTSKWGVVQASGCLWTWGNEFGGVNGASEYTANTGGRGSVYAQPAAALFGGAWNGTSLSGSRAALWYSGPSFSFAFFGARGVCDHLILE
The molecule B1 displayed a stoichiometry N of 6.
